Data on 2 proteins can be found in PMC12830992, “Insights into the self-assembly and interaction of sars-cov-2 fusion peptides with biomimetic plasma membranes” (Nature Communications, 2025).

The data set deals with the molecule itself. The experiment in a line: atomic force microscopy (topography); peptide mixed at 5 mol% with plasma membrane lipid mixture, Langmuir-Blodgett monolayer compressed to 20 mN/m (liquid-expanded phase), transferred onto mica, imaged in air at room temperature, Peak Force mode.

B1: SARS-CoV-2 Spike fusion peptide FP2 (residues 835-856) (peptide)
peptide: KQYGDCLGDIAARDLICAQKFN
notes: Spike (S) glycoprotein of SARS-CoV-2, S2 subunit fusion domain, residues 835-856
Consider B1, for which the binding result is given as “binds”.

B2: SARS-CoV-2 Spike fusion peptide FP1 (residues 816-837) (peptide)
peptide: SFIEDLLFNKVTLADAGFIKQY
notes: Spike (S) glycoprotein of SARS-CoV-2, S2 subunit fusion domain, residues 816-837
As for B2, the binding result is “binds”.
